For 17 sequences, protein production results are on record in a protein production outcome set (Wang et al. 2014).

This data set can be described thus: label from the status in PepcDB records.
Turning to “MSITYSAISFSGFSPKSVPFAIHSVTRRQFLNPNTFYRFGFSPSLQGSSIEFSLQLNSRVVLSKERRSLPLVVRNDRPQNEDLPKQYTRREKKPFPVPIVDLRRAARERVKNNKDKPKRPLPPPKNGMVVKSLVPLAYKVYNARIRLINNLHRLMKVVRVNACGWCNEIHVGPYGHPFKSCKGPNTSQRKGLHEWTNSVIEDVIVPLEAYHLFDRLGKRIRHDERFSIPRVPAVVELCIQGGVEIPEFPAKRRRKPIIRIGKSEFVDADETELPDPEPQPPPVPLLTELPVSEITPPSSEEETVSLAEETLQAWEEMRAGAKKLMRMYRVRVCGYCPEVHVGPTGHKAQNCGAFKHQQRNGQHGWQSAVLDDLIPPRYVWHVPDVNGPPMQRELRSFYGQAPAVVEICAQAGAVVPEHYRATMRLEVGIPSSVKEAEMVV”, the protein production result is recorded as “failed”. For “MSIYDPNPDQSLARIDALEKELANLKASHNTLDIQNKILKGFISLTNVSAGRMLIKATLQKTMEASIHQTGAQLGSLFLLDGDGRVTESILARGATDQSQKKNIVGQVLDKGLAGWVRENKRTGLINDTTKDYRWLKLPDEPYQALSALGVPIVWGDELLGILTLMHSQVNHFTPACATAMEKTAELIALVLNNARIQTKHKQNETLIQQEDDLLNQAILWFPSIIFILDNQGVLLKCGGKYLAQIGLDPKESIGKSIYYLLPEANELKSLTSHALANNIIESVSVQMERVDHGTWFYDAWFSPILDNHGQVSNVVCMLLPA”, the protein production result is “failed”. As for “MSKCGVRARLLGLCTERASAWAMALIALVAGGLLTAALAFAAHTFYKQQLRQRFELLASERASRIAERFDEQQQRLDGLRRFFSFSSEITPREFDGYARPLLQRTLAYAWAPRVEAAQRAEFERLASAHTGPGYVIRDQDAQGQWRPASQRDHYFPVLYTQSSERPGLPYGLDLAGQSEPQAALARALAPALAPGSMAVSEPLALFDTQSAERGLLMVAPVFSDADPRGAAVGYVMALLSMRELVSDGRPVAVDDNLVVRITDPSGLQGPVVLFDSQNPVAPLALASNQLLRLADHHFQLSIQPSQAFAQANRSSAVMAVGLLGGLLSLLLSVLLYSLFSQRQRALALVAQRTAELQVSEQSLRGTHNQLRSVLDAATQVAIIATNLKGVVSTFNAGAERMLGYAASEAIGRLRLEDLVLPEELNLRAQALSLRFGRAIAGGQAMFAETVQEHGAEPGEWTLLRADGSQLVANMLVTAMLDEQGLWVGYLAICIDVTERRRVHEALAARDRLLEKLSAEVPGGIYQYRLDANGHSCFPYASMGLYDIYEIDLMQLREDASAVFERIHPDDLERVRRSVRYSAEHLSPWREEYRVCLPRAGLRWVRGEATPEVGEQGCTLWHGYLTDISDLKGVEEELRALSVTDSLTGIHNRRYFQERLKIELERAQRDGLPLAVIMLDIDHFKRINDRFGHAVGDRVLRSLCQRIAQRLRRTDVFCRLGGEEFMVLCPGSDANQARLLALELWQGVRNVPVEGVGQVTASFGVAGWRSGEGADALLLRADAGVYAAKQAGRDRVEGEPV”, the entry is “failed”; as for “MSKEDAWNMVTIYPAKQLRVDEYVGSLTPGKMADIVLWNAEPLSIYAKVTHAWVEGKRYFDREQDQLAQLEHHHHHH”, “failed”; as for “MSKEPIIKLDNIDVTFHQKKREINAVKDVTIHINQGDIYGIVGYSGAGKSTLVRVINLLQEPSAGKITIDDQVIYDNKVTLTSTQLREQRREIGMIFQHFNLMSQLTAEQNVAFALKHSGLSKEAKAAKVAKLLELVGLSDRAQNYPSQLSGGQKQRVAIARALANDPKILISDESTSALDPKTTKQILALLQDLNKKLGLTIVLITHEMQIVKDIANRVAVMQNGKLIEEGSVLDIFSHPRESLTQDFIKIATGIDEAMLKIEQQEVVKNLPVGSKLVQLKYAGHSTDEPLLNQIYKEFEVTANILYGNIEILDGIPVGEMVVILSGDEEKLRQACQAITDSQVQLTLLKEGGKA”, “failed”. In the case of “MSKFDGYFLRQLLVLCGFFAFVLVGVFWISKAVSLFDRLISSGQTAMVALEFTALTLPTLVRTVMPMAAFCATVYVTNRLNRESEMTVMLATGSSPFRLARPVILFGLVCAAMLATITLYLRPAAMLRLEARQAEVAGDMTAQLLNDGQFMHPVKGVTVYIGKIDRDGTLNDVYLSDRRAPERVVTYTSSKAFLARSGEQIALVMVEGTALQMETGRRTLSTTVFRDFSYDISALAKRDIERRQDIRGMPTLALATAFDGEGLAETYSRGEISEELQERLSWIGVSVAVTLIGFSTLMLGTFSRFGLWPQLIAAFAGLIALEGMRSTATAFVGSHPGLWWVQHAPALGGIALSILFLKLAGRPLRLRRYPDTGSV”, the protein production result was “failed”. For “MSKHLCFTAFSSIALFLLCFSSWASAVAPAEINEARLVAQYNYSINILAMLLVGFGFLMVFVRRYGFSATTGTYLVVATGLPLYILLRANGIFGHALTPHSVDAVIYAEFAVATGLIAMGAVLGRLRVFQYALLALFIVPVYLLNEWLVLDNASGLTEGFQDSAGSIAIHAFGAYFGLGVSIALTTAAQRAQPIESDATSDRFSMLGSMVLWLFWPSFATAIVPFEQMPQTIVNTLLALCGATLATYFLSALFHKGKASIVDMANAALAGGVAIGSVCNIVGPVGAFVIGLLGGAISVVGFVFIQPMLESKAKTIDTCGVHNLHGLPGLLGGFSAILIVPGIAVAQLTGIGITLALALIGGVIAGALIKLTGTTKQAYEDSHEFIHLAGPEDEHKAERLVLEAKTEIQGLKNRIDAAVLSAKSEG”, the protein production entry is recorded as “not failed”. Regarding “MSKIADDQNFNDEEENFAKLFKKELEKEETLEKGTIKEGLVVSINENDGYAMVSVGGKTEGRLALNEITDEKGQLLYQKNDPIIVHVSEKGEHPSVSYKKAISQQKIQAKIEELGENYENAIIEGKIVGKNKGGYIVESQGVEYFLSRSHSSLKNDANHIGKRVKACIIRVDKENHSINISRKRFFEVNDKRQLEVSKELLEATEPVLGVVRQITPFGIFVEAKGIEGLVHYSEISHKGPVNPEKYYKEGDEVYVKAIAYDAEKRRLSLSIKATIEDPWEEIQDKLKPGYAIKVVVSNIEHYGVFVDIGNDIEGFLHVSEISWDKNVSHPNNYLSVGQEIDVKIIDIDPKNRRLRVSLKQLTNRPFDVFESKHQVGDVLEGKVATLTDFGAFLNLGGVDGLLHNHDAFWDKDKKCKDHYKIGDVIKVKILKINKKDKKISLSAKHLVTSPTEEFAQKHKTDSVIQGKVVSIKDFGVFINADGIDVLIKNEDLNPLKKDEIKIGQEITCVVVAIEKSNNKVRASVHRLERKKEKEELQAFNTSDDKMTLGDILKEKL”, the protein production result was “failed”. For the sequence “MSKICQITGKKAMVGNNVSHSKRRTKRVFDVNLFRKKFYWVEQDCWVVLRISAAGLRLINKIGLDAAIKRAAEKGFLNALEHHHHHH”, the protein production entry is “not failed”. Take “MSKKQKSKYIVIFGCGRLGSLIANLASSSGHSVVVVDKNEYAFHRLNSEFSGFTVVGDAAEFETLKECGMEKADMVFAFTNDDSTNFFISMNARYMFNVENVIARVYDPEKIKIFEENGIKTICPAVLMIEKVKEFIIGSEED”: the protein production result is reported as “not failed”. “MSKKTDVVKEYTRIDSKRGLSITTGANRMKLFDRRVLELGRGEYGKLWNVIILGLLISFSYIVQGLLIAVILNGVFAGTPLHESRLYFAAVALLIVLRWIMIRENDRIAARTASNIAMSLRRRMYHKLYELGPGWIMTQKSGVIQATLVDGAEALQNYYGRFLPQVVVSIAAGISIVAILFYVDMTIGLVIGGMMIAALIQPLAIYKGVGKGIRIWFVAMPRLFAEYVDNIQGIVTLKSFNASQRQGKILYQRTNDLYDAEIGILRDEILWSVPPGLVAAICGTVAIIIGAIRMDAGALSAAGLLFVLLLVREALRPVTDLRQTIHFSFSGMGAAEGVLDILEATPLAAVTARPTPSSIPHSFAFEDVTFRYRKTDASAVENLSFKVEPGDKVALVGRSGSGKTTVTSLLMRYFDPQAGIIRLGGEDIRHIPADELHAMYSIVSQDTFLFHGTVRDNLLMAKPEASQEELERAARAAAAHKFIATLPDSYDTLIGERGVRLSGGERQRIAIARAILKDAPILILDEATSSVDVANETLIREAIAGLAHDRTTLLISHRLSAVRDADRIYVLEKGRLMEAGTHSKLVGCNGNYSALVRAEEECI”: the protein production entry is reported as “failed”. For the sequence “MSKLAQIVQKLKKQGIEAAVLSDPVSINYLTGFYSDPHERLMFLFLFADQEPLLFLPELDALRAKSILDISVTGYLDFENPLEKIKTLLPKTNYSKIALEFDNLNVTKFKGLETIFSGQFTNLTPLINRMR”, the protein production entry is recorded as “not failed”. As to “MSKLEFLAFYDELTGLPNKNSLIRWLNLKVSQMDCIDTYLIFLEVRDLEKLNVTYGYDLVDELIIHISKRIKDIAGEGNKAFKIGFDRFAIICKSENISDFIERMLSQLLLPYNVNGNLIRVNFNIGAAQIENSNEAAANLMRRCDLALIKAKEEGLNEYVIFKPSIEIQTLEHHHHHH”, the protein production entry is “not failed”. For the sequence “MSKLIGMLLNDKQVYVGPFLRGKKGILLAVESLKGNTFDDKQWVVDRAQKKSEREMELKVPYEQSLKEIADKFQSYNFRGSGFVAFSTQNVTISGICKDVIDESVAMPPSVGPRMPIYPLGSPGIRKSMFYG”, the protein production result is recorded as “not failed”. As for “MSKLKTIALTASGLSVCPGFLYAQNTSSHQIGLAIMRLNSSILDLPPTKQYFQSGSLWSELRQGFRMGEVNPELVRRHESKFIASHSYFNRVINRSRPYMYHIANEVKKRNMPAEAALLPFIESAFVTKAKSHVGASGLWQFMPATGRHYGLEKTPVYDGRHDIYAATDAALNYLQYLYGLFGDWPLAFAAYNWGEGNVGRAINRARAQGLEPTYENLRMPNETRNYVPKLLAVRNIIAAPQSFGMNISDIDNKPYFQAVEPDRPLDNEAIARLAGITQSELLALNPAFNVPAFIPKSKRKLLLPVASVQTFQSNYLNAAPDSLFSWEVYTPAAKTSLSDISTATGMSIADIKRLNNLNGNLVNAGRSILVAKNGKTLQTASESVVSIDIDNTPNTYRSNMPAGTVNVGIARIRPAAAQTADITVAPLPQKTVRTEPDPLVRIAEPALATAAAQPQTEKQTAMPSETQTATLAQIVPQNDMQAADELMQLVARNNLRRQAEETISAVIGTPDTVAEHNISSSPQHTVAADGKRRVRLETRVAKAADGEAEISPLHASIHRVVEGDTLFNIAKRYNVSVADLIVANNIKGNTIQKGQVLRLAQAAPAQTRIEKVSYTARKGDTFKSIAARFNIHIDDIRRLNPNLNTINPGQRVKLIGS”, the entry is “failed”; as for “MSKMRFFALQELSNRKPLEITTPSNKLSDYYASHVFDRKKMQEYLPKEAYKAVVDATEKGTPISREMADLIANGMKSWAKSLNVTHYTHWFQPLTDGTAEKHDGFIEFGEDGEVIERFSGKLLIQQEPDASSFPNGGIRNTFEARGYTAWDGSSPAFVVDTTLCIPTIFISYTGEALDYKTPLLKALAAVDKAATEVCQLFDKNITRVFTNLGWEQEYFLVDTSLYNARPDLRLTGRTLMGHSSAKDQQLEDHYFGSIPPRVTAFMKELEIECHKLGIPVKTRHNEVAPNQFELAPIFENCNLANDHNQLVMDLMKRIARKHHFAVLFHEKPYNGVNGSGKHNNWSLCTDTGINLFAPGKNPKGNMLFLTFLVNVLMMVHKNQDLLRASIMSAGNSHRLGANEAPPAILSIFLGSQLSATLDEIVRQVTNSKMTPEEKTTLKLGIGRIPEILLDTTDRNRTSPFAFTGNRFEFRAAGSSANCAAAMIAINAAMANQLNEFKASVDKLMEEGIGKDEAIFRILKENIIASELIRFEGDGYSEEWKQEAARRGLTNICHVPEALMHYMDNQSRAVLIGERIFNETELACRLEVELEKYTMKVQIESRVLGDLAINHIVPIAVSYQNRLLENLCRMKEIFSEEEYEVMSADRKELIKEISHRVSAIKVLVRDMTEARKVANHKENFKEKAFAYEETVRPYLESIRDHIDHLEMEIDDEIWPLPKYRELLFTK”, “not failed”. Regarding “MSKPAITLWSDAHFFSPYVLSAWVALQEKGLSFHIKTIDLDSGEHLQPTWQGYGQTRRVPLLQIDDFELSESSAIAEYLEDRFAPPTWERIYPLDLENRARARQIQAWLRSDLMPIREERPTDVVFAGAKKAPLTAEGKASAEKLFAMAEHLLVLGQPNLFGEWCIADTDLALMINRLVLHGDEVPERLVDYATFQWQRASVQRFIALSAKQSG”, the protein production result was “not failed”.
